Data published in patent US20230059341A1 (TESARO, published 2023).
Where two headings read alike, the source gives them in different places. Blank lines part the entries; values can stand above or below the binder they belong to.

Tests used:
[1] = target: T1, human PD-1 on PD-1 effector cells (Jurkat T cells, Promega #J1155) (human, UniProt Q15116 25-288); assay: cell-based or functional assay
[2] = target: T1, human PD-1 on PD-1 effector cells …; assay: cell-based or functional assay; remark: listed apart in the source
[3] = target: T2, PD-1 protein constitutively expressed on engineered CHO K1 cells (UniProt Q15116 25-288, limits assumed); assay: MSD potency assay: competitive binding on CHO K1 cells expressing PD-1, inhibition of PD-L1-mFc binding, ECL; percent of reference material
T2 construct: whole, on cells; also called programmed cell death protein 1
T2 sequence (Q15116 25-288 limits assumed, change not shown): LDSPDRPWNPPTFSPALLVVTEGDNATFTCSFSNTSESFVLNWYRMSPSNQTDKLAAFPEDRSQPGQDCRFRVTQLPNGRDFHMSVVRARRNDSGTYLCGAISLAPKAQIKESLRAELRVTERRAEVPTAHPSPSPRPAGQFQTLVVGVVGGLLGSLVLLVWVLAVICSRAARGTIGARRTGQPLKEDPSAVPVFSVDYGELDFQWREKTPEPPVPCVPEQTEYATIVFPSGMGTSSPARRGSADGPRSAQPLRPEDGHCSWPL
Description: (§1) The Meso Scale Discovery (MSD) potency assay employs engineered CHO K1 cells constitutively expressing the PD-1 protein. […] The readout is measured using a specific detection antibody mixture that releases an electrochemiluminescence (ECL) signal that can be quantified.

[4] = target: T3, Neonatal Fc Receptor (FcRn) (UniProt P55899 24-297; P61769 21-119, limits assumed); assay: FcRn binding assay, BIACORE (SPR)
[5] = target: T3, Neonatal Fc Receptor (FcRn); assay: BIACORE (SPR), antibody immobilized on sensor chip, FcRn injected as analyte
Description: FcRn binding was assessed via BIACORE analysis. […] Various concentrations of analyte (FcRn) were injected for analysis of the association and dissociation properties.

[6] = target: T3, Neonatal Fc Receptor (FcRn); assay: FcRn binding assay, BIACORE (SPR); remark: listed apart in the source
[7] = target: T2, PD-1 protein constitutively expressed …; assay: MSD potency assay: competitive binding on CHO K1 cells expressing PD-1, inhibition of PD-L1-mFc binding, ECL; percent of reference material; remark: listed apart in the source
Description: as §1

[8] = target: T2, PD-1 protein constitutively expressed …; assay: as above; remark: listed apart in the source
Description: as §1

[9] = target: T3, Neonatal Fc Receptor (FcRn); assay: FcRn binding assay, BIACORE (SPR); remark: listed apart in the source

T1 sequence (Q15116 25-288): as the sequence (Q15116 25-288 limits assumed, change not shown) above

B4: Dostarlimab (antibody, human IgG4 S228P, kappa)
heavy: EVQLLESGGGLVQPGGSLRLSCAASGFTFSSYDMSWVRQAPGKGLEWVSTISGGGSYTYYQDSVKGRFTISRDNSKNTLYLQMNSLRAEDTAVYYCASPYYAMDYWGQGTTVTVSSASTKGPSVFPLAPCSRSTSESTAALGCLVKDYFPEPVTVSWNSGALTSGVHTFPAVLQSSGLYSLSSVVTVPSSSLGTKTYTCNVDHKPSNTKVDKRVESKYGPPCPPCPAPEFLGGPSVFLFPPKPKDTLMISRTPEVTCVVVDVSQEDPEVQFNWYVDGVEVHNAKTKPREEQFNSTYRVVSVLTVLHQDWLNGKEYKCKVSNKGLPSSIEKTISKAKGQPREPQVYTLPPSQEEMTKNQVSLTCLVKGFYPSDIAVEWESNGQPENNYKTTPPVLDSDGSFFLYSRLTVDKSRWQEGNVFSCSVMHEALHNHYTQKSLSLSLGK
light: DIQLTQSPSFLSAYVGDRVTITCKASQDVGTAVAWYQQKPGKAPKLLIYWASTLHTGVPSRFSGSGSGTEFTLTISSLQPEDFATYYCQHYSSYPWTFGQGTKLEIKRTVAAPSVFIFPPSDEQLKSGTASVVCLLNNFYPREAKVQWKVDNALQSGNSQESVTEQDSKDSTYSLSSTLTLSKADYEKHKVYACEVTHQGLSSPVTKSFNRGEC
modifications: N-glycan at Asn 293 (99% occupancy)
notes: also called dostarlimab drug substance (DS); anti-PD-1 antibody
Kd [5]: 1750 nM

B5: Dostarlimab reference material (antibody, human IgG4 S228P, kappa)
heavy: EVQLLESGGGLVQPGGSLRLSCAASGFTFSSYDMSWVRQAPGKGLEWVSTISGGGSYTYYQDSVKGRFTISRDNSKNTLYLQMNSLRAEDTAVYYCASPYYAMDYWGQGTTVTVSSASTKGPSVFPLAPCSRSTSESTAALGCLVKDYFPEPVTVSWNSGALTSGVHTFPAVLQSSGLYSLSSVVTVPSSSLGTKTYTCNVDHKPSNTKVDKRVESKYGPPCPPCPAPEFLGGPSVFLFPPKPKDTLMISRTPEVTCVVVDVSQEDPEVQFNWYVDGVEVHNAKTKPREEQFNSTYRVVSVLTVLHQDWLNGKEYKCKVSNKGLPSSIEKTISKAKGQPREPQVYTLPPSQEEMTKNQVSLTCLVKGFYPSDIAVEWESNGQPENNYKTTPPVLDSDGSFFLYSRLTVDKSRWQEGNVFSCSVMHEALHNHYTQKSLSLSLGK
light: DIQLTQSPSFLSAYVGDRVTITCKASQDVGTAVAWYQQKPGKAPKLLIYWASTLHTGVPSRFSGSGSGTEFTLTISSLQPEDFATYYCQHYSSYPWTFGQGTKLEIKRTVAAPSVFIFPPSDEQLKSGTASVVCLLNNFYPREAKVQWKVDNALQSGNSQESVTEQDSKDSTYSLSSTLTLSKADYEKHKVYACEVTHQGLSSPVTKSFNRGEC
Kd [5]: 1690 nM

B8: Dostarlimab, AAPH treated, 40° C., 7 days (antibody, human IgG4 S228P, kappa)
heavy: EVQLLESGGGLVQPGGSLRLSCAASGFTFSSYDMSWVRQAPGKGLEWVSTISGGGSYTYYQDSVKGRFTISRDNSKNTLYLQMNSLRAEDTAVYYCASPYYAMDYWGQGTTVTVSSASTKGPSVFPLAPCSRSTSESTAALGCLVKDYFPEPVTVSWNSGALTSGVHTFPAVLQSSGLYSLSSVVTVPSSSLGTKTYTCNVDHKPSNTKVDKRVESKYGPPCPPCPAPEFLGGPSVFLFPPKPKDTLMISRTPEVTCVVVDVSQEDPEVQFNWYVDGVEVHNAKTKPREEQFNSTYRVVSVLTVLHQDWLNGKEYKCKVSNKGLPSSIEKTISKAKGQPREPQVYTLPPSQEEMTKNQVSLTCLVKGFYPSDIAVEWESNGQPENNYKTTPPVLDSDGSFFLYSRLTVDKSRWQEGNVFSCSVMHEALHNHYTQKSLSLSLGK
light: DIQLTQSPSFLSAYVGDRVTITCKASQDVGTAVAWYQQKPGKAPKLLIYWASTLHTGVPSRFSGSGSGTEFTLTISSLQPEDFATYYCQHYSSYPWTFGQGTKLEIKRTVAAPSVFIFPPSDEQLKSGTASVVCLLNNFYPREAKVQWKVDNALQSGNSQESVTEQDSKDSTYSLSSTLTLSKADYEKHKVYACEVTHQGLSSPVTKSFNRGEC
modifications: PTM levels of this sample are not tabulated
notes: 5 mM AAPH; HMW 18.7%; also called AAPH, 40° C., 7 days
Relative Potency, MSD Binding [8]: 43% | Kd [9]: 9.69 µM

Further lines, results first:

Relative Potency (Potency by cell-based bioassay) [1]: 125% | Relative Potency, Cell-Based Bioassay [2]: 125% | Relative Potency, MSD Binding [3]: 88% | Kd [4]: 1980 nM
B1: Dostarlimab, acid degraded, pH 4.0, 25° C., 3 weeks (antibody, human IgG4 S228P, kappa)
heavy: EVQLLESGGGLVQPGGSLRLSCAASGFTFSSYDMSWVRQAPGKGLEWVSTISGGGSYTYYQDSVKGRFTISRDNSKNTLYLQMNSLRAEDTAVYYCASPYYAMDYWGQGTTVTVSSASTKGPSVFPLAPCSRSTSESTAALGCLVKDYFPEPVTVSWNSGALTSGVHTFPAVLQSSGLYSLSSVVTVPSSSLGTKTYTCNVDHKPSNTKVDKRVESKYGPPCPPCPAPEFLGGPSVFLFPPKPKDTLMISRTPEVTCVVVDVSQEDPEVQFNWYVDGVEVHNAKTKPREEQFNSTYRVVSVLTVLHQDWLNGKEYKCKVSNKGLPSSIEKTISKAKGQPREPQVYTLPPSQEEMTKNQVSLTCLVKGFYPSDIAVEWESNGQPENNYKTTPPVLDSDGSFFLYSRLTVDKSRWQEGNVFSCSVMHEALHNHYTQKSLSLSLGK
light: DIQLTQSPSFLSAYVGDRVTITCKASQDVGTAVAWYQQKPGKAPKLLIYWASTLHTGVPSRFSGSGSGTEFTLTISSLQPEDFATYYCQHYSSYPWTFGQGTKLEIKRTVAAPSVFIFPPSDEQLKSGTASVVCLLNNFYPREAKVQWKVDNALQSGNSQESVTEQDSKDSTYSLSSTLTLSKADYEKHKVYACEVTHQGLSSPVTKSFNRGEC
modifications: percent of population: Asn 137 deamidation 1.2; percent of population: Met 248 oxidation 3.1; Asp 261/266/276 isomerization 3.0; Asn 311 deamidation 7.2; Asn 380 deamidation 9.7; Asn 385 deamidation 1.8; Asp 395/397/409 isomerization 2.7; Asn 430 deamidation 1.0; Lys 443 clipped 97.0
notes: Mixture; HMW 15.2%, basic peaks 34.1%; also called Acid Hydrolysis

Relative Potency (Potency by cell-based bioassay) [1]: 86%
B2: Dostarlimab, sustained agitation, 300 rpm, 25° C., 3 weeks (antibody, human IgG4 S228P, kappa, V domains shown)
VH: EVQLLESGGGLVQPGGSLRLSCAASGFTFSSYDMSWVRQAPGKGLEWVSTISGGGSYTYYQDSVKGRFTISRDNSKNTLYLQMNSLRAEDTAVYYCASPYYAMDYWGQGTTVTVSS
VL: DIQLTQSPSFLSAYVGDRVTITCKASQDVGTAVAWYQQKPGKAPKLLIYWASTLHTGVPSRFSGSGSGTEFTLTISSLQPEDFATYYCQHYSSYPWTFGQGTKLEIKR
modifications: all PTM levels within analytical variability of the control

Relative Potency, Cell-Based Bioassay [2]: 109% | Relative Potency, MSD Binding [3]: 99% | Kd [4]: 2060 nM
B3: Dostarlimab, acid degraded, T0 (exposed to pH 4.0, no incubation) (antibody, human IgG4 S228P, kappa)
heavy: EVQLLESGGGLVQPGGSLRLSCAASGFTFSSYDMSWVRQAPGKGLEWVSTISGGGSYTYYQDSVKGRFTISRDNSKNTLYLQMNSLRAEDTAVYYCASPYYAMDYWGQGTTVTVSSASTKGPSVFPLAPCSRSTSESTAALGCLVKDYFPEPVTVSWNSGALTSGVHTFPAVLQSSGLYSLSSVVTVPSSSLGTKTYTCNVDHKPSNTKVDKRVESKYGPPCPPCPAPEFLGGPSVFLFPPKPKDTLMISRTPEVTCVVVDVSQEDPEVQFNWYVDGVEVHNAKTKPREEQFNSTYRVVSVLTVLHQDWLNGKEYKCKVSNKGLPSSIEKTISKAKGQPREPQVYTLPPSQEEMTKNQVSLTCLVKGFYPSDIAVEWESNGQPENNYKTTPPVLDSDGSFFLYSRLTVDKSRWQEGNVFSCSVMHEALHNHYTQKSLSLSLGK
light: DIQLTQSPSFLSAYVGDRVTITCKASQDVGTAVAWYQQKPGKAPKLLIYWASTLHTGVPSRFSGSGSGTEFTLTISSLQPEDFATYYCQHYSSYPWTFGQGTKLEIKRTVAAPSVFIFPPSDEQLKSGTASVVCLLNNFYPREAKVQWKVDNALQSGNSQESVTEQDSKDSTYSLSSTLTLSKADYEKHKVYACEVTHQGLSSPVTKSFNRGEC
modifications: percent of population: Asn 137 deamidation 1.2; percent of population: Met 248 oxidation 3.8; Asn 311 deamidation 7.1; Asn 380 deamidation 10.1; Asn 385 deamidation 1.5; Lys 443 clipped 97.1
notes: Mixture; HMW 13.4%, basic peaks 13.6%

Kd [6]: 2260 nM
B6: Dostarlimab, base degraded, T0 (exposed to pH 9.0, no incubation) (antibody, human IgG4 S228P, kappa)
heavy: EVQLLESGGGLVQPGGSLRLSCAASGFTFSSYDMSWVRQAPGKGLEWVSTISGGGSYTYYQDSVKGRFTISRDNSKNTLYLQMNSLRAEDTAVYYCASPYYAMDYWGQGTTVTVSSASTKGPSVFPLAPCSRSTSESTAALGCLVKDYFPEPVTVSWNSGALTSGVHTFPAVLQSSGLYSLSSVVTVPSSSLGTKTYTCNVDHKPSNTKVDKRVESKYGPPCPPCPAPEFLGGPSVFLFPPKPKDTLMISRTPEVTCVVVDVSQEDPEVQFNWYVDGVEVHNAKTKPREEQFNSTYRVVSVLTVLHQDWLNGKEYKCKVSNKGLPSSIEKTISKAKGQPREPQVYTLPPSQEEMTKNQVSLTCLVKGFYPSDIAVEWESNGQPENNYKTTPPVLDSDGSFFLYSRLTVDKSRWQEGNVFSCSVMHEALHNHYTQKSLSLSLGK
light: DIQLTQSPSFLSAYVGDRVTITCKASQDVGTAVAWYQQKPGKAPKLLIYWASTLHTGVPSRFSGSGSGTEFTLTISSLQPEDFATYYCQHYSSYPWTFGQGTKLEIKRTVAAPSVFIFPPSDEQLKSGTASVVCLLNNFYPREAKVQWKVDNALQSGNSQESVTEQDSKDSTYSLSSTLTLSKADYEKHKVYACEVTHQGLSSPVTKSFNRGEC
modifications: percent of population: Asn 137 deamidation 1.3; percent of population: Met 248 oxidation 2.8; Asn 311 deamidation 6.8; Asn 380 deamidation 10.8; Asn 385 deamidation 1.8; Lys 443 clipped 96.9
notes: Mixture; HMW 8.1%, acidic peaks 27.2%

Relative Potency, MSD Binding [7]: 79%
B7: Dostarlimab, H2O2 treated, 25° C., 1 week (antibody, human IgG4 S228P, kappa, V domains shown)
VH: EVQLLESGGGLVQPGGSLRLSCAASGFTFSSYDMSWVRQAPGKGLEWVSTISGGGSYTYYQDSVKGRFTISRDNSKNTLYLQMNSLRAEDTAVYYCASPYYAMDYWGQGTTVTVSS
VL: DIQLTQSPSFLSAYVGDRVTITCKASQDVGTAVAWYQQKPGKAPKLLIYWASTLHTGVPSRFSGSGSGTEFTLTISSLQPEDFATYYCQHYSSYPWTFGQGTKLEIKR
modifications: percent of population: Asn 137 deamidation 1.3; percent of population: Met 34 oxidation 14.0; Met 103 oxidation 64.9; Met 248 oxidation 98.6; Asn 311 deamidation 7.0; Met 354 oxidation 99.8; Asn 380 deamidation 10.9; Asn 385 deamidation 1.8; Met 424 oxidation 98.0; Lys 443 clipped 98.0
notes: 0.1% (v:v) H2O2; also called H2O2, 25° C., 1 week
